This note sets out measurements from PMC9245472.

The series has as its target T1, ArgR (Thermotoga neapolitana) (UniProt Q9KWZ0).
T1 sequence: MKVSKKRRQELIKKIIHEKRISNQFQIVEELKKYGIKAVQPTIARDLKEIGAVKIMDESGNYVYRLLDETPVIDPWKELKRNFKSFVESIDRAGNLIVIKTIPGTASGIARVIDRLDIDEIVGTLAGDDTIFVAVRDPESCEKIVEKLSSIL
As to the kind of experiment: EMSA. Particulars: 10 mM Tris-HCl pH 7.5, 250 mM KCl, 5 mM MgCl2, 2.5 mM CaCl2, 2.5% glycerol, 0.5 mM DTT, 100-fold sonicated herring sperm DNA, 37 C 30 min; 2% agarose in TAE ….

Consider “TGTTACTCTTGAGTTACCAAAACAAAAACAAATGAATTTTTCTTCCAGAGGTGTTATATTTATGCTGTATAATTGTATGTGTTTTCAATCTGAAAGATGGAGGTGTTCAACTTGAAGGTGTCGAAAAAAAGAAGACAGGAACTCATAA (double strand) [argRo (ArgRTn)]”, for which the binding entry is recorded as “binds”.
